Laboratory results reported in the DeepSol protein solubility set.

test: soluble on expression in E. coli; label from the status in PepcDB or PDB records

Sequence	soluble on expression in E. coli
MADTFFFTPSRRLTVANVAELTGAKLLNPEFSNTVINTLSSLESAGKGSLVFVEHRKFSDALVGSSAVAVFCTNEIVFKVPESMAILVTSTPQRDFAQIGRILFPDSVKPMPWFGQREISPHAHIHPSAKLAGDVCIEAGAVIGRNVEIGSGSLIASTAVIGENCRIGCDCYIAPKVTVQYSLIGDKVHLYPGACIGQDGFGYIGGASGIEKVPQLGRVIIEDGVEIGANTTIDRGTFEDTIIGEGSKIDNLVQIAHNVKIGRYCLIAAQCGIAGSTSIGDMSQLGGSVGVADHIVIGKYVQIAAGSGVMNDIPDGEKWGGSPARPFKQWFREVAALRSIGKVKKEKR	not soluble
MGSDKIHHHHHHMNYKNRKRAYYQENSCMDNFICKNCGCLVVPEGAGTQHRNHCPHCLHSLHVDIIPGDRAADCDANMEPIGVWVRKNGEWAIIHRCTRCGHLSSNRIAADDNSVKLMSIALKPLAQPPFPLERIIEKLEKEETE	not soluble
MLPKRNSGDNELYTNREKRKKMTSYIADSAVFIMGNCGVDSSLLITVPSVADELKSRDSMLRFDLAKEEGLRVEWPEPEMVKEVRKKAEQTRDSEELSKTDLEILAKALEHRETAVLLTDDYAVQNVAVQLGIQVKPIAQKKIKDVLIWQKQCTGCKKTFDKGDECPICGSPLKKKRKRKLKGKGYRESLEHHHHHH	not soluble
MTDICMLKTMDSRNTNEAKQEPKTMVWWDINSCPVPDGYDARMVAHSIESELKKAGYPGPLTITAIGYLNTPLMCM	not soluble
MGSDKIHHHHHHMKFSDIISKLEVTNYSLTQNPNNDPEITGMAAIDEATSGTLSYIEGAKFASFIAKTNASALILPQNEAMQAQAQERGIVWMATPEPRLLFAKAIALFYQPYTPTPEIHPTAVIHPTAKIGNDVYIGPHVVIQPGVEIGNGVIIHPNVVIYPGVKIGDRTILHANCTIEERSQIGADCVIHSGAVIGGEGFGFVPTRTGWYKMEQSGYVVLEDRVDIGCNTTIDRPSVGETRVGYDTKIDNLVQIAHGCQIGAGCAIAAQTGMAGGVKLGNRVILAGQVGIANQAKMGDGSTASAQTGILHDVKPGEVVSGTPAIPHKMYLKIAALYSRLPDMYQAFRQSQRQLEEEGKR	not soluble
MAHHHHHHMSWRVSCKTALLDELFTYIAGKTDANTLQKECVLALPQLETLAKMLGFSLDDMSMYRLAWSWSCEAPLCIRKSEFVNGMNAICSGVKLSATATSSTCSASPVKSPKKEFEPILLALRNHVETLDGALRGDVTKFRHFYRFIYKWVQSPLTMERNMGQVGMSIETAVELWRMLFPHYREFKRLDDWITFCMSKKLFPHGIISRDLWEQLLEFTFVTDYSKYDVSDAWPSAMDDFVEYVKSKV	not soluble
MSLTEAAKLTFKVTNPNEKVKVRLTFSQSGEQKEVAIDAAGNGNIEITGFTPQYVTMQYTRGRRTLYLDPNQDLTLSFDSDNMWRNTTFEGAGAAINTYLGSKELQSLGMPDMKMQEAALIHKGDSLYAANCQVLEAAKLPADFTAQEKIRLQFYTYYYFSKYALYHPHFGKDDNYIPSKAYYEKLEAITPINAGLLALKEYKAFLPDAISAFSNKGKTVASNSTEQSVNYVDATIQDEKVAEFLIDQFVYNFVDNNGLDEADGLIVLFRKHVKDAKSIEKFNALCTKWEKLRSGNPSAASFSYPDINGKTVSLADLKGKYIYIDVWATWCGPCRGELPALKELEEKYAGKDIHFVSLSCDKNKKAWENMVTKDQLKGIQLHMGTDRTFMDAYLINGIPRFILLDRDGKIISANMTRPSDPKTAEKFNELLGLEGHHHHHH	soluble
MAHHHHHHMTDIAHGSRYDRDAAISTAAEQVAAGQYAENKPRAIMFVNKRPVEIIPQEENVLEVLEREGITVPKFCYHPILSVAGNCRMCMVQVDGTQNIVVACSTVALPGMSIITDSRLVRDAREGNVELILINHPNDCPICEQATNCDLQNVSMNYGTDIPRYREDKKAVEDFYFDPQTRVVLNRCIHCTRCIRFLNEHAQDFNLGQIGRGGLSEISTFLDELEVKTDNNMPVSQLCPVGKLYMGDADENNDIVRELEAAGATA	not soluble
MAHHHHHHMQDSVLLSEAFDASHRPWPNRPERKKGVSPSGRDFNMTLYRMKGCPYCERVEWLLRYHLVPFEIVEVGPLTTKGFPDQRFVQVPQIGLEAVADPNNPHAAEKSVAYVADSQHIIAAISAPLGFTKQLSDPRIMETRKWMMERFQAAGFLAINSTWRDAYTTYPHVTPSHYYYQNPIFHVVGATALYALAKYKVAPRFAAEESATSGFPSMENSLQRDPSAWLAAELSGFATRLSGGCHQLHGGKEPDIADVEMYGLTRIIDAHPRLRSALHEGPLKEWCAAMEAALQKRTHVTKK	not soluble
MACKRLVPGGEIERTRRVLDLFADSGSRVIRPQQPVDVLGSEGPAKVLGQVQNNVAVQYDHMVRGIGHDTGLESDQVCRLTERGICVRELLTLVFGDKALGAEHGDIRRGHTQDAGVL	not soluble
MKIVYWSGTGNTEKMAELIAKGIIESGKDVNTINVSDVNIDELLNEDILILGCSAMADEVLEESEFEPFIEEISTKISGKKVALFGSYGWGDGKWMRDFEERMNGYGCVVVETPLIVQNEPDEAEQDCIEFGKKIANI	soluble
EIQLQQSGPELVKPGASVKVSCKASGYSFTDYFIYWVKQSHGKSLEWIGDIDPYNGDTSYNQKFRDKATLTVDQSSTTAFMHLNSLTSEDSAVYFCARGLRFWGQGTLVTVSAAKTTPPSVYPLAPGSAAQTNSMVTLGCLVKGYFPEPVTVTWNSGSLSSGVHTFPAVLQSDLYTLSSSVTVPSSTWPSETVTCNVAHPASSTKVDKKIVPRDCG	soluble
SKHYPEAGIQYSSSTTGDGRPLDIEFSGSCSLEKFYDNPKSNDGNSYRLQSWLYASRLLQYSDALEHLLSTGQGVVLERSIYSDFVFLEAMYNQGFIRKQCVDHYNEIKRLTLPEYLPPHAVIYIDVPVSEIQSRIQKKGDPHEMKVTSAYLQDIEDAYKKTFLPKMSEICEVLVYSSWEAEDSTKVVEDIEYLNYNKGPWLKQDDRTFHNLRMLVQDKREVLNYTTVPVYLPEITIGAHQGSRIYDSFRELPGRKYAPGYNADVGDKWIWLK	soluble
MSLFPGDIEELARRIITDFTPLGLMVSTAESCTGGLIAGALTEIAGSSAVVDRGFVTYTNDAKRDMLGVGTETLTTFGAVSRQTALQMAHGALYRSRANFAVAVTGIAGPGGGSAEKPVGLVHLATKARNGNVLHHEMRYGDIGRTEIRLATVRTALEMLIALNQAGSV	soluble
MGHHHHHHGGHMSLAQNDHETVDMLLVGAGIMSATLAVLLKELDPNLKMEVVELQESGAIESSNPWNNAGTGHAGLCELNYTPQSADGSIDIKKAVGINTMFEVSKQLWSHLVAKGTFGSPKTFINPVPHLSFVRGSEGIAYLKKRFESLTKHHAFETMVYSEDKATLAEWMPLMMPGRPADEAIAATRVEGGTDVNFGALTNQLLQHLAQQPGAQIRYNQKVTHLRRADNGWRVTVKDTRNGGDREIQARFVFLGAGGGALPLLQLSGIPEGKGFGGFPVSGQWLRCDNPEIVKQHQAKVYSQAEVGSPPMSVPHLDTRVVDGKKSLLFGPYAGFSTKFLRHGSFLDLPLSVRPGNILPMLSVARDNMDLTRYLIGQVMQSPEQRLEALRKFYPEARAEDWRLEVAGQRVQIIKKDPKKGGILQFGTELVAAHDGSIAALLGASPGASVTVSIMLGLIERCFPEQARSPEWSAKLKEIFPAREKELESDAELYRSVSSRCSEVLELTAKNDVQAEGGS	soluble
MLKVIDVDFVSDHTLELTFNDGYQGYADLSVYFKKAPFSEIKDFKRFSLTRDGSLNWDGNELTAATLRDITKGSQKSVELSFNVQEMEAVIKQASWESMMEGRPDILQAAIRSYVEQFGHGQVIAKAGIKSRTSAYRSLKPETTPNFGTLVQLGHAVIELAKDRTVANKEPRI	not soluble
MGSDKIHHHHHHMQPEFNRPEFLEGNSAEEIHERMMNNLPDDIDDMPGGFPYDMTMPAALEKDEIINFHIVRALMIAFPEYAWDEWLDLHGRQVHLTRHEAEPAFGYVKITAAEGTEILSGTVFCTAATETGPSIEYATTEDVVVGGEGSVLIPVSAVEAGTGSNVAANTVVLMMVPDKNVTEINNPEPIRGGTERETDDDFYDRIAAEYDNSMTYLGNDTDYKRWAKQAGAGDAIVISTWNGPGTVKLVLVDGNGKPANAKLVQDVYNYIVSPNDRSARLLPTGTAELTCAAATTVAVNYVIAGLSYDETTGIEQIKADFTEAVRAVYAQAKTEGVLRYNDVRPLISAIAGVEDFETFTMNGKMQNITLKSEEYPDTGTLNFS	not soluble
MNSRQQSILQMVVDKGQMSVAELAKITGVSEVTIRQDLNTLEKQSYLRRAHGFAVSLESDDVETRMMTNYTLKRRLAEFAASLVSPGESVFIENGSSNALLARTLAEQKDVTIITVSSYIAHLLKETPCEVILLGGIYQKKSESMVGPLTRQFIHQVHFSKAFIGIDGWQADTGFTGRDMMRSDVVNAVLEKGSEAIVLTDSSKFGCVHPYPLGPLSRFHRVITDSKISASDQMQLEHAGLLVNVIGSSVLEHHHHHH	soluble
MQRMAKMKAMEKHHGYKVLTMIHRREMISLFGLPAYQSIDEEDAEQVLRWIRKYRDYPLELILHTPGGQLHASIQIARALKNHPKKTRVLIPHYSMSGGTIIALAADEIVMDKDAVIGPIDPQVGDPIRGVFPAPSWIHAAETKKEDADDSTLVMSDISRKALRLTRNVAKELLEGKIQPDGKEDRLEEVVEKLVSGEMIHSTPLSAREAKELGLSVNTDFPEDVHDFMRLFRPVKKTVEYVG	not soluble
GPLGSGMRFMPVQSNFVINHGKLTNQLLQAVAKQTRNGDTQQWFQQEQTTYISRTVNRTLDDYCRSNNSVISKETKGHIFRAVENALQQPLDMNGAQSSIGHFLQSNKYFNQKVDEQCGKRVDPITRFNTQTKMIEQVSQEIFERNFSGFKVSEIKAITQNAILEHVQDTRL	soluble
MPIIASESSHESIPQDFMDAVESMHKAQLRPEISLGTIRPPQRLAPFSHAVGLEVSGTLSDDSQGDAFGRLILLHDPTSDESWDGSMRLVAYIQADMDASVANDPLLPDVAWQWLTEALDKTHADHTNLGGTVTATASVRFGEIGGPPRAYQVEMRASWTATAIDLAPHVSAFAQVLANVAGLSPEGTTSISR	not soluble
MTSPITLDALKVLDAIERKKSFAAAADELFRVPSAISYTVNKLEDDLGIALFDRSKRKAELTSVGIMLVEQGRLILKATDELTHMAKQSAEGWELELRICIDSILLFQPIYTLIAQFQQEYPWINIRVTEEVFGGTWDALVAGRSDLIIGATGEPYNSDFSLYKLGNVDFVFVVAKDHALIKEQQPLSNEIIKKYPSVVVADSSRNLPGRSAGLLDGQSRITVSSIEKKIEAQLLGLGVGFLPIHRIKSQLESGQLVILALETTENRNSELCMAWRNDNQGKALAWFVSNIQQMAVKLI	not soluble
